B1: 10H5: mouse monoclonal anti-IGF-1R antibody from hybridoma 10H5.3.4, ATCC PTA-7007 (antibody, V domains shown)
VH: QVQLQQPGAELVKPGASVTLSCKASGYTFTRFWIHWVKQRPGQGLEWIGEINPSNGRTNYNENFKNKATLTVDTSSSTAYMQLSSLTSEVSVVYYCARGGRLDQWGQGTT
VL: DIVMTQSQKFMSTSLGDRVSVTCKASQNVGSNVAWYQQKPGQSPEALIYSASYRYSGVPDRFTGSGSGTDFTLTISNVQSEDLAEYFCHQYNNYPYTFGGGTKVEIKR
B2: 9F2: mouse monoclonal anti-IGF-1R antibody from hybridoma 9F2.6.2, ATCC PTA-7018 (antibody, V domains shown)
VH: QIQLVQSGPELKKPGETVKISCKASGYTLANYGMNWVKQAPGKGFKWMGWINTNTGKPTYSDEFKGRFVFSLETSASTAYLLINNLSNEDTATYFCARSIYYYGSRYFNVWGAGTT
VL: DIQMTQSTSSLSASLGDRVTISCRASQDINNYLTWYQQKPDGTVKLLIYYTSRLHSGVPSRFSGSGSGTDYSLTITNLEQEDFATYFCQQGNTLPWTFGEGTKVEIKR

What was measured:
MCF7 cells = assay: cell viability assay ([…]-GLO), MCF7; format: cell-based, human; design: key to Effect of IR3, 6D2, 9F2, and 10H5: +: growth inhibition; −: no or weak effect; conditions: MCF7, Breast Adenocarcinoma
Protocol: (§1) The different cell lines were cultured in their respective culture media at 37° C. in a humidified atmosphere of 5% CO2. Subsequently, cells were detached from tissue-culture flasks using the cell-dissociation solution, TRIPLE SELECT™ solution (InVitrogen, Carlsbad, Calif., USA), and centrifuged at 1000 rpm for five minutes. Detached cells were washed once with PBS, counted, and seeded in 96-well plates (Corning, N.Y., USA) at 2000 cells per well in 100 μL of culture media. After an overnight incubation at 37° C. in a humidified atmosphere of 5% CO2, the cell-culture medium was replaced with 50 μL of starvation medium consisting of serum-free RPMI 1640™ medium without phenol red. The cells were then starved for five hours in the incubator before addition of 25 μL of each anti-IGF-1R monoclonal antibody at various dilutions in serum-free RPMI 1640™ phenol red-free media. Later, 25 μL of phenol red-free RPMI 1640™ media supplemented with 4% of fetal bovine serum (FBS) (Sigma) with or without 4 ng/ml of human recombinant IGF-I were added on top of the 50 μL of antibody. The cells were then placed at 37° C. with 5% CO2 for 5 to 6 days. At the end of the assay, cell viability was measured using the […]-GLO® kit according to the manufacturer's instructions (Promega, Madison, Wis., USA).
For the cell viability assay, MCF7 cells were seeded onto 96-well plates at 2000 cells/well and incubated overnight at 37° C. in a humidified atmosphere of 5% CO2/95% air in RPMI 1640™ medium supplemented with 10% FBS (Sigma, St. Louis, Mo.) and 1% GLUTAMAX™ reagent (Promega, Madison, Wis.). The next day cells were starved in serum-free RPMI 1640™ medium (phenol red-free) for five hours followed by addition of serially diluted human chimeric versions of 9F2, 2B4, and 10H5, as well as h10H5.vX, for one hour. Subsequently, phenol red-free PRMI 1640™ medium supplemented with FBS or IGF-I was added to reach a final concentration of 1% FBS and 1 ng/mL IGF-I. Cells were then incubated with continuous IGF-1R antibody exposure. After five days, the cell viability was then determined using a […]-GLO™ kit (Promega, Madison, Wis.) according to the manufacturer's instructions.

PC3 = assay: cell viability assay, PC3; format: cell-based, human; design: key: +: growth inhibition; −: no or weak effect; conditions: PC3, Prostate Adenocarcinoma
Protocol: as §1

HELA = assay: cell viability assay, HELA; format: cell-based, human; design: key: +: growth inhibition; −: no or weak effect; conditions: Cervix Adenocarcinoma
Protocol: as §1

KM12 = assay: cell viability assay, KM12; format: cell-based, human; design: key: +: growth inhibition; −: no or weak effect; conditions: KM12, Colorectal Adenocarcinoma
Protocol: as §1

DLD1 = assay: cell viability assay, DLD1; format: cell-based, human; design: key: +: growth inhibition; −: no or weak effect; conditions: DLD1, Colorectal Adenocarcinoma
Protocol: as §1

HCT15 = assay: cell viability assay, HCT15; format: cell-based, human; design: key: +: growth inhibition; −: no or weak effect; conditions: HCT15, Colorectal Adenocarcinoma
Protocol: as §1

SJCRH30 = assay: cell viability assay, SJCRH30; format: cell-based, human; design: key: +: growth inhibition; −: no or weak effect; conditions: SJCRH30, Rhabdomyosarcoma
Protocol: as §1

IGF-1R = IGF-1R (Homo sapiens, UniProt P08069); assay: BIACORE surface-plasmon resonance, human IGF-1R; format: binding; design: containing the extracellular domain (ECD, amino acids 1-902) tagged with 10 or 12 histidine residues at the carboxyl terminus; His10 or His12 (C); made in house; host or cells: CHO cells; conditions: affinity measurements, FIG. 14
Protocol: Binding affinities of antibodies to IGF-1R were determined by surface-plasmon resonance measurements on a BIACORE™ 3000 instrument (BIAcore, Inc.). Human IGF-1R-ECD was immobilized at a density of about 500 RU on the flow cells of a PIONEER™ CM5 sensor chip. Immobilization was achieved by random coupling through amino groups using a protocol provided by the manufacturer. Sensorgrams were recorded for binding of anti-IGF-1R Fab or IgG to these surfaces by injection of a series of solutions ranging from 500 nM to 3.1 nM and 250 nM to 0.78 nM in 2-fold increments, respectively. The signal from the reference cell was subtracted from the observed sensorgram. Kinetic constants were calculated by nonlinear regression analysis of the data according to a 1:1 Languir binding model using software supplied by the manufacturer. […]
Binding affinities of selected antibodies to IGF-1R were determined by surface plasmon resonance measurements on a BIACORE™ 3000 instrument (BIAcore, Inc.). […] Sensorgrams were recorded for binding of anti-IGF-1R Fab or IgG to these surfaces by injection of a series of solutions ranging from 500 nM to 3.1 nM and 250 nM to 0.78 nM in two-fold increments, respectively. […] Kinetic constants were calculated by non-linear regression analysis of the data according to a 1:1 Languir binding model using software supplied by the manufacturer.

| Molecule | Effect of IR3, 6D2, 9F2, and 10H5 (MCF7 cells) | Effect of IR3, 6D2, 9F2, and 10H5 (PC3) | Effect of IR3, 6D2, 9F2, and 10H5 (HELA) | Effect of IR3, 6D2, 9F2, and 10H5 (KM12) | Effect of IR3, 6D2, 9F2, and 10H5 (DLD1) | Effect of IR3, 6D2, 9F2, and 10H5 (HCT15) | Effect of IR3, 6D2, 9F2, and 10H5 (SJCRH30) | binding to human IGF-1R (IGF-1R) |
| --- | --- | --- | --- | --- | --- | --- | --- | --- |
| B1 | + | − | + | − | − | − | + | strong binding to human IGF-1R |
| B2 | + | − | + | − | − | − | + | strong binding to human IGF-1R |

Reference: patent US20090068110A1, “ANTIBODIES TO INSULIN-LIKE GROWTH FACTOR RECEPTOR” (Genentech, Inc., priority 2006, published 2009)
